Measurements as given in patent US20190284262A1 (Memorial Sloan Kettering, published 2019).

B1: EXT017-32 scFv phage clone (scFv)
scFv: QSVLTQPPSVSVAPGKTARITCGGNNIGSKSVHWYQQKPGQAPVLVIYYDSDRPSGIPERFSGSNSGNTATLTISRVEAGDEADYYCQVWDSSSDHYVFGTGTKVTVLGSRGGGGSGGGGSGGGGSLEMAEVQLVESGGGVVQPGRSLRLSCAASGFTFNNHAMHWVRQAPGKGLEWVAVISFDGDDKFYADSVKGRFTISRDNSRNTLFLQMNNLRPEDTAVYYCSRDPYHFASGSYSYFDYWGQGTLVTVSSTSGQAGQHHHHHHGAYPYDVPDYAS
notes: also called EXT017-32 phage; phage clone #32
B2: EXT017-54 scFv phage clone (scFv)
scFv: QAVLTQPPSLSGGPRQRVTISCSGSTSNIGKNGVSWYQQLPGKAPKLLIYNDHLLSSGVSDRFSGSKSGTSASLAISGLQSDDEADYYCATWDDTLDLPLFGGGTKVTVLGSRGGGGSGGGGSGGGGSLEMAQMQLVQSGAEVEKPGASVKLSCKASGGTFSSYAISWVRQAPGQGLEWMGGIIPIFGTANYAQKFQGRVTITADESTSTAYMELSSLRSEDTAVYYCARPSYYSIKSAWDHWGQGTLVTVSSTSGQAGQHHHHHHGAYPYDVPDYAS
notes: full-length scFv with His+HA tags; also called EXT017-54 phage
B3: EXT017-21 scFv phage clone (scFv)
scFv: SYELTQPPSVSVAPGQTASMTCGGNNIGSKSVHWYQQKPSQAPVMVVHDDSERPSGIPERISGSKSGNTATLTISRVEAGDEADYYCQVWDSSSDHVIFGGGTKLTVLGSRGGGGSGGGGSGGGGSLEMAQVQLVQSGAEVKKPGASVKVSCKASGYTFTNYYIHWVRQAPGQGLEWMGIIRPSGGITNYAQKFQGRVSMTRDTSTSTVYMELSSLRSEDTAVYYCARSWMSDSYYDGWGQGTLVTVSSTSGQAGQHHHHHHGAYPYDVPDYAS
notes: also called phage clone #21
B4: EXT017-28 scFv phage clone (scFv)
scFv: QSVLTQPPSVSGAPGQRVTISCTGSSSNIGAGYDVHWYQQLPGTAPKLLIYGNSDRPSGVPDRFSGSKSGTSASLAITGLQAEDEADYYCQSYDSSLSGYVFGTGTKVTVLGSRGGGGSGGGGSGGGGSLEMAQMQLVQSGAEVKKPGSSVKVSCKASGGTFSTYAISWVRQAPGQGLEWMGGIIPIFGTANYAQKFQGRVTITADKSTSTAYMEVRNLRSEDTAVYYCARAEYVYGEYDQWGQGTLVTVSSTSGQAGQHHHHHHGAYPYDVPDYAS
notes: full-length scFv with His+HA tags; also called EXT017-28 phage; phage clone #28
B5: #29 (scFv)
scFv (VL-linker-VH-His/HA tag): QSVLTQPPSVSAAPRQKVTISCSGSSSNIGNNYVSWYQQLPGTAPKLLIYDDNKRPSGIPDRFSGSKSGTSATLGITGLQTGDEADYYCGTWDSSLSAVVFGGGTKLTVLGSRGGGGSGGGGSGGGGSLEMAQVQLVQSGTEVKRAGASVKVSCKASGYTFTNYYMHWVRQAPGQGLEWMGIINPSIGSTNYAQKFQGRVTMTRDTSTSTVFMELSSLRSDDTAVYYCARSFGDSDGADSWGQGTLVTVSSTSGQAGQHHHHHHGAYPYDVPDYAS
notes: also called EXT017-29; EXT017-29 scFv phage clone
B6: #34 (scFv)
scFv (VL-linker-VH-His/HA tag): QSALTQPPSASGSPGQSVTISCTGTSSDVGAYNYVSWYQHYPGKAPKLMIYEVSERPSGVPDRFSGSKSGNTASLTVSGLQAEDEADYFCSSYAGSNNFVFGTGTKVTVLGSRGGGGSGGGGSGGGGSLEMAEVQLVQSGAEVKKPGSSVKVSCKASGGTFSSYAISWVRQAPGQGLEWMGRIIPILGIANYAQKFQGRVTITADKSSSTAYMALSSLTSEDTAVYYCARGGDYVESWFDPWGQGTLVTVSSTSGQAGQHHHHHHGAYPYDVPDYAS
notes: also called EXT017-34; EXT017-34 scFv phage clone
B7: #55 (scFv)
scFv (VL-linker-VH-His/HA tag): QSALTQPASVSGSPGQSITISCTGPTSDFNDYLFVSWYQQHPGKAPKLILYDVTHRPSGVSGRFSGSKSASTASLTISGLQAEDEADYFCGSKTGRTTYVFGTGTKVTVLGSRGGGGSGGGGSGGGGSLEMAQVQLVQSGAEVKKPGASVKVSCKASGYTFDNFGISWVRQAPGQGLEWMGWINTYDGYTNYVEKLQGRVTMTTDTSTGTAYMELRGLRSDDTAVYYCARSVPHQISYGDLWGQGTLVTVSSTSGQAGQHHHHHHGAYPYDVPDYAS
notes: also called EXT017-55; EXT017-55 scFv phage clone
B8: #25 (scFv)
scFv (VL-linker-VH-His/HA tag): QSVLTQPPSVSAAPGQKVTISCSGSSSNIGNNYVSWYQFLPGTAPKLLIYDNNQRPSGIPDRFSGFKSGTSATLDITGLQTGDEADYYCGTWDNSLSAAVFGRGTKLTVLGSRGGGGSGGGGSGGGGSLEMAQMQLVQSGTEVKRAGASVKVSCKASGYTFTNYYMHWVRQAPGQGLEWMGIINPSGGSTTYAQKFQGRVTMTRDTSTSTVYMELSDLGSEDTAVYYCARSWSKTEGSDRWGQGTLVTVSSTSGQAGQHHHHHHGAYPYDVPDYAS
notes: also called EXT017-25; EXT017-25 scFv phage clone

target: T1, R3 (RHAMM-R3) peptide/HLA-A*02:01 complex on T2 cells (human); experiment: flow cytometry, phage on T2 + R3 peptide (as the table names the samples); secondary only 109, unstained 80.9
T1 construct: Control target of the phage staining of T2 cells; also called T2 cells pulsed with R3 peptide; RHAMM 3 (R3)

Point of comparison: B2, “Median:FITC-A” value 122. Against it:
- B1 — higher, 123
- B3 — higher, 123
- B4 — lower, 118

target: T2, HLA-A*02:01 on T2 cells alone (no peptide added) (human); experiment: flow cytometry, phage on T2 without peptide; secondary only 121, unstained 106
T2 construct: TAP-deficient T2 cells without pulsed peptide; negative control target, and the HLA molecule whose stabilisation by peptides is read in the T2 stabilization assay; also called HLA-A*02 molecule; HLA-A2 molecule

Point of comparison: B3, “Median:FITC-A” value 147. Against it:
- B1 — lower, 138
- B4 — lower, 144

target: T2, HLA-A*02:01 on T2 cells alone (no …); experiment: flow cytometry, phage on T2 cells, no peptide

Point of comparison: B1, MFI 91.8. Against it:
- B2 — lower, 89.9
- B4 — higher, 93.9

target: T1, R3 (RHAMM-R3) peptide/HLA-A*02:01 …; experiment: flow cytometry, phage on T2 + R3 peptide; secondary only 123, unstained 99.8

Point of comparison: B3, “Median:FITC-A” value 143. Against it:
- B1 — lower, 136
- B4 — lower, 140

target: T2, HLA-A*02:01 on T2 cells alone (no …); experiment: flow cytometry, phage on T2 cells

B1: no binding.
B3: no binding.
B4: no binding.

target: T3, Foxp3-7 peptide/HLA-A*02:01 complex on the cell surface (human); experiment: flow cytometry, phage on T2 + Foxp3-7 peptide; secondary only 104, unstained 81.7
T3 construct: also called Foxp3-7/HLA-A2 complex

Point of comparison: B4, “Median:FITC-A” value 2790. Against it:
- B1 — higher, 3840
- B2 — higher, 4370
- B3 — lower, 2220

target: T2, HLA-A*02:01 on T2 cells alone (no …); experiment: flow cytometry, phage on T2 without peptide; secondary only 320, unstained 91.4

Point of comparison: B1, “Median:FITC-A” value 356. Against it:
- B5 — higher, 369
- B2 — lower, 343
- B6 — higher, 361
- B7 — higher, 389
- B4 — lower, 353
- B8 — higher, 386

target: T2, HLA-A*02:01 on T2 cells alone (no …); experiment: flow cytometry, phage on T2 without peptide; secondary only 100, unstained 99.5

For B3, the “Median:FITC-A” value was 138.

target: T4, T2+EW (Homo sapiens, UniProt A*02:01); experiment: flow cytometry, phage on T2 + EW peptide; secondary only 113, unstained 94.7
T4 construct: on the surface of T2 cells; irrelevant control peptide; also called EW peptide/HLA-A*02:01 complex on T2 cells; T2 pulsed with EW peptide

With B3 the “Median:FITC-A” value was 143.

target: T3, Foxp3-7 peptide/HLA-A*02:01 complex on …; experiment: flow cytometry, phage on T2 + Foxp3-7 peptide; secondary only 133, unstained 103

B3 was tested, and the “Median:FITC-A” value was 1550.

target: T3, Foxp3-7 peptide/HLA-A*02:01 complex on …; experiment: flow cytometry, phage on T2 + Foxp3-7 peptide; secondary only 318, unstained 95.8

Point of comparison: B4, “Median:FITC-A” value 1740. Against it:
- B5 — lower, 1010
- B1 — lower, 1640
- B2 — lower, 732
- B6 — lower, 1050
- B8 — lower, 1030

target: T3, Foxp3-7 peptide/HLA-A*02:01 complex on …; experiment: flow cytometry, phage on peptide-loaded T2 cells

Point of comparison: B4, MFI 39500. Against it:
- B1 — lower, 27500
- B2 — lower, 30400

target: T5, 017-mut8 peptide (…)/HLA-A*02:01 complex on T2 cells (human); experiment: flow cytometry, phage on peptide-loaded T2 cells
T5 construct: Alanine mutant at position 8; also called TLI-A8

Point of comparison: B1, MFI 96.7. Against it:
- B2 — higher, 5850
- B4 — higher, 27500

target: T6, 017-mut7 peptide (…)/HLA-A*02:01 complex on T2 cells (human); experiment: flow cytometry, phage on peptide-loaded T2 cells
T6 construct: Alanine mutant at position 7

Point of comparison: B4, MFI 96.4. Against it:
- B1 — higher, 99.6
- B2 — lower, 91.1

target: T7, 017-mut5 peptide (…)/HLA-A*02:01 complex on T2 cells (human); experiment: flow cytometry, phage on peptide-loaded T2 cells
T7 construct: Alanine mutant at position 5

Point of comparison: B2, MFI 91.2. Against it:
- B1 — higher, 2710
- B4 — higher, 107

target: T8, 017-mut2 peptide (…)/HLA-A*02:01 complex on T2 cells (human); experiment: flow cytometry, phage on peptide-loaded T2 cells
T8 construct: Alanine mutant at position 2, the anchor position; the peptide may load poorly onto HLA-A2; also called EXT017-mut2

Point of comparison: B2, MFI 94.7. Against it:
- B1 — higher, 103
- B4 — higher, 102

target: T9, 017-mut1 peptide (…)/HLA-A*02:01 complex on T2 cells (human); experiment: flow cytometry, phage on peptide-loaded T2 cells
T9 construct: Alanine mutant of Foxp3-7 at position 1, pulsed onto T2 cells; also called EXT017-mut1

Point of comparison: B1, MFI 15100. Against it:
- B2 — higher, 23500
- B4 — higher, 20100

target: T10, 017-mut3 peptide (…)/HLA-A*02:01 complex on T2 cells (human); experiment: flow cytometry, phage on peptide-loaded T2 cells
T10 construct: Alanine mutant at position 3

Point of comparison: B1, MFI 21000. Against it:
- B2 — lower, 7780
- B4 — lower, 13400

target: T11, 017-mut4 peptide (…)/HLA-A*02:01 complex on T2 cells (human); experiment: flow cytometry, phage on peptide-loaded T2 cells
T11 construct: Alanine mutant at position 4

Point of comparison: B1, MFI 20800. Against it:
- B4 — lower, 108

target: T12, 017-mut9 peptide (…)/HLA-A*02:01 complex on T2 cells (human); experiment: flow cytometry, phage on peptide-loaded T2 cells
T12 construct: Alanine mutant at position 9

Point of comparison: B1, MFI 93.6. Against it:
- B2 — higher, 3540
- B4 — higher, 5890

target: T3, Foxp3-7 peptide/HLA-A*02:01 complex on …; experiment: flow cytometry, phage on T2 + Foxp3-7 peptide; secondary only 116, unstained 93.8

Point of comparison: B4, “Median:FITC-A” value 873. Against it:
- B1 — higher, 4070
- B3 — lower, 428

target: T2, HLA-A*02:01 on T2 cells alone (no …); experiment: flow cytometry, phage on T2 without peptide

B5: no binding.
B2: no binding.
B6: no binding.
B7: no binding.
B8: no binding.

target: T4, T2+EW; experiment: flow cytometry, phage on T2 + EW peptide; secondary only 310, unstained 93

Point of comparison: B4, “Median:FITC-A” value 338. Against it:
- B5 — higher, 359
- B1 — higher, 357
- B2 — higher, 364
- B6 — higher, 386
- B7 — higher, 391
- B8 — higher, 375
